# T1: FcγRIIa H (human, UniProt P12318 34-217)
# T1 construct: extracellular domain; also called FcγRIIa type H; 2aH; not shown: His tag at the C terminus
# T1 sequence (looked up): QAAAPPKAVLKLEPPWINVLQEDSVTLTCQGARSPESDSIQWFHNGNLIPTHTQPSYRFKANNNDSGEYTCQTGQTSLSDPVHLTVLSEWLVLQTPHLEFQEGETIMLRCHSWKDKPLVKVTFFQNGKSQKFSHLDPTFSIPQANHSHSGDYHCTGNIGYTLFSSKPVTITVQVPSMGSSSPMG
# T2: FcγRIIb (human, UniProt P31994 43-217)
# T2 construct: extracellular domain; also called 2b; not shown: His tag at the C terminus
# T2 sequence (looked up): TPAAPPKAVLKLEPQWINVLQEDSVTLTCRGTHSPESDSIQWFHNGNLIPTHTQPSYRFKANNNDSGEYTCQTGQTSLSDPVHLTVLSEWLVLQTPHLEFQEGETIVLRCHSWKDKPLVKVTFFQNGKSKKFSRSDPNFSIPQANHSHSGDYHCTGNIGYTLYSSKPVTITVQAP
# T3: human FcγRIIb extracellular domain with C-terminal His tag (human, UniProt P31994 43-217)
# T3 construct: extracellular domain; also called FcgRIIb; 2b; not shown: His tag attached to the C terminus
# T3 sequence (looked up): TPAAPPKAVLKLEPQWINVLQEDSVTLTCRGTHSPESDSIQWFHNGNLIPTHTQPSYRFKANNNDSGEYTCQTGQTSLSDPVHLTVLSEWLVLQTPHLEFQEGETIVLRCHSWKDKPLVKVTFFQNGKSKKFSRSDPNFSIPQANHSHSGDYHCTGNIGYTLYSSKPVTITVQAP
# Assays:
# FcγRIIa H = biological target: T1, FcγRIIa H; experiment: SPR (Biacore), antibody captured, FcγR as analyte; binding relative to GpH7-A5/GpH7-B3/GpL16-k0 = 100
# Procedure: (§1) The heterodimerized antibodies He Abs in which one of the H chains was introduced with an alteration were assayed for their binding activities to each activating FcγR and inhibitory FcγR according to the method described in Example 4. […] The activating FcγRs in FIGS. 26, 27, 28, and 29 are FcγRIa, FcγRIIa (R), FcγRIIa (H), and FcγRIIIa, respectively.
# (§2) Analysis of interaction between objective antibody and the FcγR was carried out using Biacore T100 (GE Healthcare). HBS-EP+ (GE Healthcare) was used as the running buffer, and the measurement temperature was set to 25° C. Chips produced by immobilizing the antigen peptide by the amine coupling method to a Series S Sencor Chip CM5 (GE Healthcare), or alternatively, chips produced by allowing preliminarily biotinylated antigen peptides to interact with and immobilize onto a Series S Sensor Chip SA (certified) (GE Healthcare) were used. Antibodies of interest were captured onto an antigen peptide-immobilized chip, and allowed to interact to each FcγR diluted with running buffer. To regenerate and repeatedly use the chip, the antibodies captured on the chip were washed off by reacting 10 mM glycine-HCl, pH 1.5.
# FcγRIIb = biological target: T2, FcγRIIb; experiment: as above
# Procedure: as §1, §2
# [1] = biological target: T3, human FcγRIIb extracellular domain with …; experiment: SPR (Biacore T100), antibody captured on antigen peptide chip, FcγRIIb as analyte; relative binding
# Procedure: as §2
He/Con_2aH (FcγRIIa H),He/Con_2b (FcγRIIb),Ho/Con_2b [1],Binder
103 % of control,96.7 % of control,,"GpH7-A5/GpH7-B3 variant T335_01G/GpL16-k0 (antibody, human IgG1, kappa, Heterodimerized IgG1; mutation in the GpH7-B3 chain only; also called He Ab) heavy 1: not shown heavy 2: not shown light: DIVMTQSPLSLPVTPGEPASISCQASESLVHSNRNTYLHWYLQKPGQSPQLLIYKVSNRFSGVPDRFSGSGSGTDFTLKISRVEAEDVGVYYCSQNTHVPPTFGQGTKVEIERTVAAPSVFIFPPSDEQLKSGTASVVCLLNNFYPREAKVQWKVDNALQSGNSQESVTEQDSKDSTYSLSSTLTLSKADYEKHKVYACEVTHQGLSSPVTKSFNRGEC"
,,128 % of control GpH7-B3/GpL16-k0 (=100),"GpH7-B3 variant K334_18N/GpL16-k0 (Ho Ab) (antibody, human IgG1, kappa, Anti-glypican-3 IgG1; mutation in both H chains; also called K334N homodimerized antibody) heavy: not shown light: DIVMTQSPLSLPVTPGEPASISCQASESLVHSNRNTYLHWYLQKPGQSPQLLIYKVSNRFSGVPDRFSGSGSGTDFTLKISRVEAEDVGVYYCSQNTHVPPTFGQGTKVEIERTVAAPSVFIFPPSDEQLKSGTASVVCLLNNFYPREAKVQWKVDNALQSGNSQESVTEQDSKDSTYSLSSTLTLSKADYEKHKVYACEVTHQGLSSPVTKSFNRGEC"
103 % of control,99.4 % of control,,"GpH7-A5/GpH7-B3 variant T335_06M/GpL16-k0 (antibody, human IgG1, kappa, Heterodimerized IgG1; mutation in the GpH7-B3 chain only; also called He Ab) heavy 1: not shown heavy 2: not shown light: DIVMTQSPLSLPVTPGEPASISCQASESLVHSNRNTYLHWYLQKPGQSPQLLIYKVSNRFSGVPDRFSGSGSGTDFTLKISRVEAEDVGVYYCSQNTHVPPTFGQGTKVEIERTVAAPSVFIFPPSDEQLKSGTASVVCLLNNFYPREAKVQWKVDNALQSGNSQESVTEQDSKDSTYSLSSTLTLSKADYEKHKVYACEVTHQGLSSPVTKSFNRGEC"
105 % of control,84.3 % of control,,"GpH7-A5/GpH7-B3 variant Y300_06M/GpL16-k0 (antibody, human IgG1, kappa, Heterodimerized IgG1; mutation in the GpH7-B3 chain only; also called He Ab) heavy 1: not shown heavy 2: not shown light: DIVMTQSPLSLPVTPGEPASISCQASESLVHSNRNTYLHWYLQKPGQSPQLLIYKVSNRFSGVPDRFSGSGSGTDFTLKISRVEAEDVGVYYCSQNTHVPPTFGQGTKVEIERTVAAPSVFIFPPSDEQLKSGTASVVCLLNNFYPREAKVQWKVDNALQSGNSQESVTEQDSKDSTYSLSSTLTLSKADYEKHKVYACEVTHQGLSSPVTKSFNRGEC"
100 % of control,99.2 % of control,,"GpH7-A5/GpH7-B3 variant Y296_04F/GpL16-k0 (antibody, human IgG1, kappa, Heterodimerized IgG1; mutation in the GpH7-B3 chain only; also called He Ab) heavy 1: not shown heavy 2: not shown light: DIVMTQSPLSLPVTPGEPASISCQASESLVHSNRNTYLHWYLQKPGQSPQLLIYKVSNRFSGVPDRFSGSGSGTDFTLKISRVEAEDVGVYYCSQNTHVPPTFGQGTKVEIERTVAAPSVFIFPPSDEQLKSGTASVVCLLNNFYPREAKVQWKVDNALQSGNSQESVTEQDSKDSTYSLSSTLTLSKADYEKHKVYACEVTHQGLSSPVTKSFNRGEC"

# Continued, binder first:
Binder,He/Con_2aH (FcγRIIa H),He/Con_2b (FcγRIIb),Ho/Con_2b [1]
"GpH7-B3 variant L328_03V/GpL16-k0 (Ho Ab) (antibody, human IgG1, kappa, Anti-glypican-3 IgG1; mutation in both H chains; also called L328V homodimerized antibody) heavy: not shown light: DIVMTQSPLSLPVTPGEPASISCQASESLVHSNRNTYLHWYLQKPGQSPQLLIYKVSNRFSGVPDRFSGSGSGTDFTLKISRVEAEDVGVYYCSQNTHVPPTFGQGTKVEIERTVAAPSVFIFPPSDEQLKSGTASVVCLLNNFYPREAKVQWKVDNALQSGNSQESVTEQDSKDSTYSLSSTLTLSKADYEKHKVYACEVTHQGLSSPVTKSFNRGEC",,,135 % of control GpH7-B3/GpL16-k0 (=100)
"GpH7-B3 variant K334_19Q/GpL16-k0 (Ho Ab) (antibody, human IgG1, kappa, Anti-glypican-3 IgG1; mutation in both H chains; also called K334Q homodimerized antibody) heavy: not shown light: DIVMTQSPLSLPVTPGEPASISCQASESLVHSNRNTYLHWYLQKPGQSPQLLIYKVSNRFSGVPDRFSGSGSGTDFTLKISRVEAEDVGVYYCSQNTHVPPTFGQGTKVEIERTVAAPSVFIFPPSDEQLKSGTASVVCLLNNFYPREAKVQWKVDNALQSGNSQESVTEQDSKDSTYSLSSTLTLSKADYEKHKVYACEVTHQGLSSPVTKSFNRGEC",,,117 % of control GpH7-B3/GpL16-k0 (=100)
"GpH7-A5/GpH7-B3 variant Y300_08L/GpL16-k0 (antibody, human IgG1, kappa, Heterodimerized IgG1; mutation in the GpH7-B3 chain only; also called He Ab) heavy 1: not shown heavy 2: not shown light: DIVMTQSPLSLPVTPGEPASISCQASESLVHSNRNTYLHWYLQKPGQSPQLLIYKVSNRFSGVPDRFSGSGSGTDFTLKISRVEAEDVGVYYCSQNTHVPPTFGQGTKVEIERTVAAPSVFIFPPSDEQLKSGTASVVCLLNNFYPREAKVQWKVDNALQSGNSQESVTEQDSKDSTYSLSSTLTLSKADYEKHKVYACEVTHQGLSSPVTKSFNRGEC",108 % of control,73.6 % of control,
"GpH7-A5/GpH7-B3 variant Y300_07I/GpL16-k0 (antibody, human IgG1, kappa, Heterodimerized IgG1; mutation in the GpH7-B3 chain only; also called He Ab) heavy 1: not shown heavy 2: not shown light: DIVMTQSPLSLPVTPGEPASISCQASESLVHSNRNTYLHWYLQKPGQSPQLLIYKVSNRFSGVPDRFSGSGSGTDFTLKISRVEAEDVGVYYCSQNTHVPPTFGQGTKVEIERTVAAPSVFIFPPSDEQLKSGTASVVCLLNNFYPREAKVQWKVDNALQSGNSQESVTEQDSKDSTYSLSSTLTLSKADYEKHKVYACEVTHQGLSSPVTKSFNRGEC",108 % of control,74.5 % of control,

# From patent US20150344570A1 (published 2015)
